Biological target: T1, recombinant furin (rFurin) (Homo sapiens, UniProt P09958)
T1 construct: purchased NEB
Assay: In vitro furin cleavage assay
Format: biochemical
Method: CHO-FD11 cells stably expressing FGE-His6 or HT1080 cells were grown for 24 h, and cells and medium were harvested. For treatment with furin in vitro cell pellets were resuspended in HEPES pH 7.5 buffer containing 1 mM CaCl2 and 0.5% Triton X-100 and lysed in the absence of protease inhibitors by sonication on ice. Appropriate amounts of cell lysate and medium were incubated for 3 h at 25° C. with 4 units of furin (NEB) with or without 25 μM decanoyl-RVKR-CMK (Alexis biochemicals) as indicated in the figures. For in vivo treatment, HT1080 Tet-On cells were transiently transfected with pBI-FGE-HA and 4 h post-transfection, the medium was replenished with medium containing 20 ng/mL doxycycline and various concentrations of decanoyl-RVKR-CMK or only DMSO as a carrier control. The cells and medium were collected after 16 h of induction/treatment for further analysis. The samples were boiled in Laemmli buffer and analyzed by SDS-PAGE and western blotting with FGE antiserum.
In mammals, the proproteinconvertase family comprises nine enzymes that differ in their substrate specificity and tissue-specific expression and/or subcellular localization (17). Furin is the best characterized mammalian PC with a ubiquitous tissue distribution and it is the major convertase in the secretory pathway. To analyze the role of furin in the processing of FGE the inventors expressed FGE in cells that are deficient for furin. […] When cell homogenate and medium from CHO-FD11 cells stably expressing FGE-His were treated with commercially available recombinant furin (rFurin), almost half the amount of FGE was processed, as observed for both cells and medium (FIG. 12D). Using this in vitro furin cleavage assay, the inventors also examined whether endogenous intracellular FGE is susceptible to furin processing. Indeed, rFurin readily converted almost 90% of endogenous fl-FGE from untransfected HT1080 cells to the truncated form (FIG. 12E).
Although FGE is an ER resident protein, it lacks a canonical ER-retention motif. […] In this study, using the in vitro furin cleavage assay, the inventors assessed furin-mediated processing of the FGE-ERp44 covalent complex (FIG. 8). Homogenates, pre-treated with NEM (to prevent post-lysis disulfide shuffling), from HT1080 cells expressing either FGE alone or FGE plus myc-ERp44 together from a bi-directional promoter were incubated with rFurin and analyzed by SDS-PAGE under non-reducing conditions. Upon overexpression, intracellular FGE via its N-terminal cysteines (C50 and C52) forms covalently cross-bridged homodimers (FIG. 15, lane 1 and 2) and, additionally, FGE-ERp44 heterodimers when co-expressed with ERp44 (FIG. 15, lane 4 and 6) as previously observed (13). Removal of the N-terminus by furin cleavage should lead to a disappearance of the homo-/hetero-dimeric FGE forms, which serves as an indicator for accessibility of the furin cleavage motif in FGE.

T1 sequence (P09958 108-794): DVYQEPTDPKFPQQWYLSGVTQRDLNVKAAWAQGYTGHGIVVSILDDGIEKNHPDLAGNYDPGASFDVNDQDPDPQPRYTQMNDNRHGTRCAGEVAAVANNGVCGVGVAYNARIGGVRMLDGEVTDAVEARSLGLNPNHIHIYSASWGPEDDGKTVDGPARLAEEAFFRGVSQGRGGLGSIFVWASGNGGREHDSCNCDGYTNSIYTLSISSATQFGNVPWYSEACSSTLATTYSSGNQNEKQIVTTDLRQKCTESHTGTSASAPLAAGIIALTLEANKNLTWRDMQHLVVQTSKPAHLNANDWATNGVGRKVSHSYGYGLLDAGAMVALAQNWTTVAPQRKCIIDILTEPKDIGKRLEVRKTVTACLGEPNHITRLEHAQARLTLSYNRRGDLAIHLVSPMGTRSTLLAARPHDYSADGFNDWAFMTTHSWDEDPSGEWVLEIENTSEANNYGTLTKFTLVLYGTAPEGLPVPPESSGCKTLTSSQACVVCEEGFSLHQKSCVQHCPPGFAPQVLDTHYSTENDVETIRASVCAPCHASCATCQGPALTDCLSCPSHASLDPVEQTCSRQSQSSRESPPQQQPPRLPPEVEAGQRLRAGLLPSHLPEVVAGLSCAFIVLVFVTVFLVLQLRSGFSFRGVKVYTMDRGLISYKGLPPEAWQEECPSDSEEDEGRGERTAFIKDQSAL

B1: FGE: human wild type full length formylglycine generating enzyme with RYSR furin cleavage motif, SEQ ID NO:2 (protein)
chain: ADEFSQEAGTGAGAGSLAGSCGCGTPQRPGAHGSSAAAHRYSREANAPGPVPGERQLAHSKMVPIPAGVFTMGTDDPQIKQDGEAPARRVTIDAFYMDAYEVSNTEFEKFVNSTGYLTEAEKFGDSFVFEGMLSEQVKTNIQQAVAAAPWWLPVKGANWRHPEGPDSTILHRPDHPVLHVSWNDAVAYCTWAGKRLPTEAEWEYSCRGGLHNRLFPWGNKLQPKGQHYANIWQGEFPVTNTGEDGFQGTAPVDAFPPNGYGLYNIVGNAWEWTSDWWTVHHSVEETLNPKGPPSGKDRVKKGGSYMCHRSYCYRYRCAARSQNTPDSSASNLGFRCAADRLPTMDSGRGSHHHHHHH
modifications: cloned matured acitve full length FGE with 6x His tag on C-terminus
- accessibility of the furin-cleavage site in FGE monomer and homodimer (NEM-treated HT1080 Tet-On lysates): accessible to furin
- furin cleavage of FGE in complex with ERp44 (NEM-treated HT1080 Tet-On lysates co-expressing myc-ERp44): protected from furin cleavage
- amount of FGE processed by rFurin (cell homogenate and medium from CHO-FD11 cells, 3 h 25° C.): almost half
- endogenous fl-FGE converted to the truncated form by rFurin (lysate of untransfected HT1080 cells): ~90%
